Experimental findings from patent US20050064507A1, “Determining kinase specificity” (priority 2003, published 2005) are described below.

Type in all cases: biochemical
The target of one assay is T1, PKC-delta (Homo sapiens, UniProt Q05655).
T1 construct: purchased Calbiochem
As to the kind of experiment: In vitro kinase assay: peptide phosphorylation by PKC-delta. The essentials:
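Biotin-Lys-dansyl-Lys-Pro-Pro-Gly-linked proteomic peptides (12–21-residue core) phosphorylated by PKC-delta in HEPES/Triton/CaCl2/MgCl2 buffer with phosphatidyl serine and PMA, 100 μM [γ-32P]ATP, 30° C., ~10 min, stoichiometry ≤5%; streptavidin-plate capture. Signal normalized as % of best peptide substrate.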

The next assay has as its target T2, PKC-alpha (Homo sapiens, UniProt P17252).
T2 construct: purchased Calbiochem
As to the kind of experiment: In vitro kinase assay: peptide phosphorylation by PKC-alpha. In short, it runs like this:
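Purified active human PKC-alpha, 5-20 ng per well, phosphorylated biotinylated peptides in duplicate wells with 100 μM ATP including 1 uCi/well of ^32P-gamma ATP. The buffer was 100 mM HEPES, 0.05% Triton-X100, 1 mM CaCl2, 20 mM MgCl2, 0.2 mg/ml phosphatidyl serine and PMA 100 ng/ml. Reactions ran at 30° C., usually for 10 minutes, keeping stoichiometry under 5%. They were stopped with ATP/EDTA, captured on streptavidin plates, washed, and counted by scintillation.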

The next assay concerns the target T3, PKC-epsilon (Homo sapiens, UniProt Q02156).
T3 construct: purchased Calbiochem
T3 sequence (Q02156 1-737): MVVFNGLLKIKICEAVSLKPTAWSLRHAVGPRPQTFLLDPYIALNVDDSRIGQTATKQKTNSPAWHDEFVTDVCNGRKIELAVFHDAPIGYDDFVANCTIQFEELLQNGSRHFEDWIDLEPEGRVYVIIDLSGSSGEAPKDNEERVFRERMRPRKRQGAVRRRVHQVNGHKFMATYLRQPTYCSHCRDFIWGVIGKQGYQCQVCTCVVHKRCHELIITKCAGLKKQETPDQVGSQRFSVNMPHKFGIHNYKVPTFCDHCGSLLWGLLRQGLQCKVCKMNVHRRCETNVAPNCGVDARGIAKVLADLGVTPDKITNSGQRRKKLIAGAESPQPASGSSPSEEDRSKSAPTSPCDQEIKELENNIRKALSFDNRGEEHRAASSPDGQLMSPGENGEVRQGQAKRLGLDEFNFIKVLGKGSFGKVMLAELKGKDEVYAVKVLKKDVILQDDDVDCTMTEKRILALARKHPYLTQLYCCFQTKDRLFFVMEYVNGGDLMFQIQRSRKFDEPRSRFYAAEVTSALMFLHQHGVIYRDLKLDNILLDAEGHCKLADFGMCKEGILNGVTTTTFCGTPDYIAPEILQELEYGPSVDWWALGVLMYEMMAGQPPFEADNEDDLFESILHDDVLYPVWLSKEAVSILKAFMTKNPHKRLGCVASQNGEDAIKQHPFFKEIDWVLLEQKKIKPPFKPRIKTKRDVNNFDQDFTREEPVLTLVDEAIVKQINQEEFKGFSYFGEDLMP
As to the kind of experiment: In vitro kinase assay: peptide phosphorylation by PKC-epsilon. The note with it: peptide concentration 1 uM. In short, it runs like this:
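Active PKC-epsilon (5-20 ng per well) phosphorylated biotinylated peptides in duplicate at 30° C. for about 10 minutes. The PKC buffer was 100 mM HEPES, 0.05% Triton-X100, 1 mM CaCl2, 20 mM MgCl2, 0.2 mg/ml phosphatidyl serine and PMA 100 ng/ml, with 100 μM ATP including ^32P-gamma ATP. Peptides were captured on streptavidin plates, washed, and counted by scintillation, with stoichiometry kept below 5%.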

T1 sequence (Q05655 whole entry): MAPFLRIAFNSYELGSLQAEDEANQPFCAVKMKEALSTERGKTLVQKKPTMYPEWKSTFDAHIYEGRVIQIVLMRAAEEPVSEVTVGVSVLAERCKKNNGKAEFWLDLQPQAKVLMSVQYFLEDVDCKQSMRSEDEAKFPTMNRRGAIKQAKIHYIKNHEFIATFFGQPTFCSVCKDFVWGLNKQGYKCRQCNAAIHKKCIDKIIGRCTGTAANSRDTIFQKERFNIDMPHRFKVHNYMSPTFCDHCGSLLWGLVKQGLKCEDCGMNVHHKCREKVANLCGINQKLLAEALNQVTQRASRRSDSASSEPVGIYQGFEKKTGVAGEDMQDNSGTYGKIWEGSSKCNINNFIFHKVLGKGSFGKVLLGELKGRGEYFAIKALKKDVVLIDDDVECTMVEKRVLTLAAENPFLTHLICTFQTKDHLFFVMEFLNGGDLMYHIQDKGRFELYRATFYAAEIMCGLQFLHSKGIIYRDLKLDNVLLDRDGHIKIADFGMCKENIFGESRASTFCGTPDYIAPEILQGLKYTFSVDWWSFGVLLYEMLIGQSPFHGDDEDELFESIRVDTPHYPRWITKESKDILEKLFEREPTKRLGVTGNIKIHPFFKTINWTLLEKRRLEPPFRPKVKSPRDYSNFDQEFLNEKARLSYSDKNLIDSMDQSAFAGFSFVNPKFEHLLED

For “146 (QAQRQIKRGAPPRRSSIRNA) [compound 146]”, the “phosphorylation by PKC-delta” value with PKC-delta (peptide concentration 1 uM) came out at 33; in the assay with PKC-delta (peptide concentration 10 uM), 14. In addition, the “phosphorylation by PKC alpha” value in the assay with PKC-alpha (peptide concentration 1 uM) was determined as 20; with PKC-alpha (peptide concentration 10 uM), 24. Besides, the “phosphorylation by PKC epsilon” value with PKC-epsilon amounted to 28.
Consider “147 (RDIRQSPKRGFLRSASLGRR) [compound 147]”, for which the “phosphorylation by PKC-delta” value is on record as 27 with PKC-delta (peptide concentration 1 uM) and 13 with PKC-delta (peptide concentration 10 uM). Besides, the “phosphorylation by PKC alpha” value was 13 with PKC-alpha (peptide concentration 1 uM) and 16 in the assay with PKC-alpha (peptide concentration 10 uM). Besides, the “phosphorylation by PKC epsilon” value with PKC-epsilon was 26.
On to “154 (KKFFTQGWAGWRKKTSFRKP) [compound 154]”, for which the “phosphorylation by PKC-delta” value with PKC-delta (peptide concentration 1 uM) worked out at 26; in the assay with PKC-delta (peptide concentration 10 uM), 14. Besides, the “phosphorylation by PKC alpha” value with PKC-alpha (peptide concentration 1 uM) is 16; with PKC-alpha (peptide concentration 10 uM), 12. Besides, the “phosphorylation by PKC epsilon” value with PKC-epsilon is recorded as 29.
The corresponding values for “155 (RWDKRRWRKIPKRPGSVHRT) [compound 155]” are 30, 23, 10, 12 and 26.
Take “156 (SAQITIPKDGQKRKKSLRKK) [compound 156]”: the entries for the “phosphorylation by PKC-delta” value with PKC-delta (peptide concentration 1 uM) and with PKC-delta (peptide concentration 10 uM) were 29 and 31, respectively. Further, the “phosphorylation by PKC alpha” value with PKC-alpha (peptide concentration 1 uM) was found to be 9; with PKC-alpha (peptide concentration 10 uM), 11. For the same substance, in the assay with PKC-epsilon, the “phosphorylation by PKC epsilon” value is reported as 18.
On the same counts, the results for “157 (PSPSNETPKKKKKRFSFKKS) [compound 157]” are 27, 35, 10, 11 and 12.
On to “158 (VQMTWSYPDEKNKRASVRRR) [compound 158]”, for which the “phosphorylation by PKC-delta” value was found to be 18 in the assay with PKC-delta (peptide concentration 1 uM) and 33 with PKC-delta (peptide concentration 10 uM). Besides, the figures for the “phosphorylation by PKC alpha” value with PKC-alpha (peptide concentration 1 uM) and with PKC-alpha (peptide concentration 10 uM) were 16 and 11, respectively. Moreover, in the assay with PKC-epsilon, the “phosphorylation by PKC epsilon” value is 11.
For the substance “159 (LYARLARAYRRSQRASFKRA) [compound 159]”, the “phosphorylation by PKC-delta” value in the assay with PKC-delta (peptide concentration 1 uM) amounted to 15; with PKC-delta (peptide concentration 10 uM), 12. In addition, the “phosphorylation by PKC alpha” value in the assay with PKC-alpha (peptide concentration 1 uM) is recorded as 21; in the assay with PKC-alpha (peptide concentration 10 uM), 19. Also, the “phosphorylation by PKC epsilon” value with PKC-epsilon is reported as 25.
The corresponding values for “160 (PFEVVWYKDKRQLRSSKKYK) [compound 160]” are 25, 31, 9, 7 and 13.
Take “161 (KYKAFIRIPIPTRRHTFRRQ) [compound 161]”: the “phosphorylation by PKC-delta” value amounted to 22 with PKC-delta (peptide concentration 1 uM) and 14 in the assay with PKC-delta (peptide concentration 10 uM). Besides, the “phosphorylation by PKC alpha” value is listed as 22 with PKC-alpha (peptide concentration 1 uM) and 8 in the assay with PKC-alpha (peptide concentration 10 uM). Further, in the assay with PKC-epsilon, the “phosphorylation by PKC epsilon” value was found to be 21.
As to “162 (KKKFSFKKPFKLSGLSFKRN) [compound 162]”, the “phosphorylation by PKC-delta” value is given as 21 with PKC-delta (peptide concentration 1 uM) and 13 with PKC-delta (peptide concentration 10 uM). The “phosphorylation by PKC alpha” value in the assay with PKC-alpha (peptide concentration 1 uM) is given as 17; in the assay with PKC-alpha (peptide concentration 10 uM), 19. Moreover, in the assay with PKC-epsilon, the “phosphorylation by PKC epsilon” value was 19.
As to “163 (PPRTPGWHQLQPRRVSFRGE) [compound 163]”, the “phosphorylation by PKC-delta” value stood at 13 in the assay with PKC-delta (peptide concentration 1 uM) and 21 with PKC-delta (peptide concentration 10 uM). In addition, the “phosphorylation by PKC alpha” value with PKC-alpha (peptide concentration 1 uM) is listed as 30; with PKC-alpha (peptide concentration 10 uM), 10. The “phosphorylation by PKC epsilon” value with PKC-epsilon amounted to 14.
For “164 (TEGKMARVAWKGKRRSKARK) [compound 164]”, the “phosphorylation by PKC-delta” value with PKC-delta (peptide concentration 1 uM) was determined as 18; with PKC-delta (peptide concentration 10 uM), 26. The “phosphorylation by PKC alpha” value with PKC-alpha (peptide concentration 1 uM) and with PKC-alpha (peptide concentration 10 uM) was 6 throughout. Also, in the assay with PKC-epsilon, the “phosphorylation by PKC epsilon” value worked out at 12.
Turning to “165 (TEEKSKKRKKKHRKNSRKHK) [compound 165]”, the entries for the “phosphorylation by PKC-delta” value in the assay with PKC-delta (peptide concentration 1 uM) and in the assay with PKC-delta (peptide concentration 10 uM) were 25 and 19, respectively. Also, the entries for the “phosphorylation by PKC alpha” value with PKC-alpha (peptide concentration 1 uM) and in the assay with PKC-alpha (peptide concentration 10 uM) were 15 and 10, respectively. In the assay with PKC-epsilon, the “phosphorylation by PKC epsilon” value is listed as 12.
The corresponding values for “166 (MAQIERGEARIQRRISIKKA) [compound 166]” are 13, 29, 22, 7 and 10.
On to “167 (GLPAPGEDKSIYRRGSRRWR) [compound 167]”, for which the “phosphorylation by PKC-delta” value in the assay with PKC-delta (peptide concentration 1 uM) is 13; with PKC-delta (peptide concentration 10 uM), 24. The “phosphorylation by PKC alpha” value was 27 with PKC-alpha (peptide concentration 1 uM) and 7 with PKC-alpha (peptide concentration 10 uM). Also, in the assay with PKC-epsilon, the “phosphorylation by PKC epsilon” value turned out to be 6.
